A short description of one series: in vivo. Conditions: female, ICR, mouse, iv, 100 umol/kg.
A short description of series [1]: SD-MTD studies, 60 days, normal mice (Example 14). Conditions: mouse, in vivo. Here is the method:
In the single dose Maximum Tolerated Dose (SD-MTD) studies, groups of normal mice were administered intravenous bolus doses of the prodrug. The mice were observed daily for 60 days and body weights measured twice weekly. The SD-MTD was estimated to be equal to the highest dose that produced no death in mice after 60 days.

Series [2] can be described thus: Repeat-dose tolerability / repeat dose MTD in tumor bearing mice. The class given is in vivo, mouse. The conditions noted are these: mouse, in vivo, Table 12, re-analyzed. An excerpt:
In one study, one animal in each dose group (n=8) was terminated as a possible drug-related toxicity death late in the study, at Days 58 and 57 in the low and high dose-groups respectively. The safety of the compound was evidenced by little body weight loss in either the high or low dose groups (less than 5% of the initial weight) during the 60-day observation period, in surviving animals (FIG. 14). In the other study, both the high and low dose were well tolerated. Only one animal in the high dose group (n=10) had over 15% of body weight loss at the end of the study (Day 61).
In repeat-dose studies in tumor bearing mice, groups of ten mice were dosed with various amounts of prodrug for a total of five doses at either five day or 1 week intervals. […] Thus, the prodrugs permit a much greater amount of therapeutic agent to be delivered to the body as a whole and thus to the vicinity of the target cell.

In series [3] the test system is HT-29 (colon carcinoma) cells. Conditions: HT29, 48 hours, 3H-thymidine incorporation. On the procedure:
(§1) Adherent cells, LNCaP (prostate carcinoma), HT-29 (colon carcinoma) and PC-3 (prostate carcinoma), were cultured in DMEM media containing 10% heat inactivated fetal calf serum (FCS). On the day of the study the cells were detached from the plate with a trypsin solution. The collected cells were washed and resuspended at a concentration of 0.25×10^6 cells/ml in DMEM containing 10% FCS. 100 μl of cell suspension were added to 96 well plates and the plates were incubated for 3 hours to allow the cells to adhere. […] The plates were then incubated for 24 hours, pulsed with 10 μl of a 100 μCi/ml ^3H-thymidine and incubated for an additional 24 hours (total incubation time 48 hours). The plates were harvested using a 96 well Harvester (Packard Instruments) and counted on a Packard Top Count Counter. Four parameter logistic curves were fitted to the ^3H-thymidine incorporation as a function of drug molarity using Prism software to determine IC50 values.
(§2) Prostate carcinoma cells, LNCaP and PC-3 cells or colon carcinoma cells HT-29, were incubated with increasing concentration of the indicated compounds for 48 hours and cellular proliferation was measured using the ^3H-thymidine assay.

Series [4] concerns LNCaP (prostate carcinoma) cells. Conditions: 48 hours, 3H-thymidine incorporation. Here is the method:
as §1, §2
On the technique in general: Dividing cells build labelled thymidine or BrdU into new DNA.

Series [5] relates to PC-3 (prostate carcinoma) cells. The conditions noted are these: PC-3, 48 hours, 3H-thymidine incorporation. Here is the method: as §1, §2
The nature of series [6]: Comparative metabolism in mice, plasma AUC.
Experimental: (§3) Plasma was obtained from three individual animals in each group at 5 minutes, 1, 2, 4, or 6 hr.
[7] abbreviates: iv, Table 11, doses as first stated, intravenous bolus, 60 days, read-out: SD MTD.
Setting [8] is: single IV bolus approximately 100 μmol/Kg, ICR mice.

Molecules are shown by their SMILES. Like-named read-outs stand apart in the source and are kept apart here.

Experimental for in vivo: as §3

What is called AUC is concentration integrated over time. Higher therefore signals high exposure. Take `CC[C@H](C)[C@H](NC(=O)CCNC(=O)CCC(=O)O)C(=O)N[C@@H](C)C(=O)N[C@@H](CC(C)C)C(=O)N[C@H]1C[C@H](O[C@H]2C[C@](O)(C(=O)CO)Cc3c(O)c4c(c(O)c32)C(=O)c2c(OC)cccc2C4=O)O[C@@H](C)[C@H]1O` [Suc-βAla-Ile-Ala-Leu-Dox]: the AUC in the series “in vivo” is 326 µM·h.
`COc1cccc2c1C(=O)c1c(O)c3c(c(O)c1C2=O)C[C@@](O)(C(=O)CO)C[C@@H]3O[C@H]1C[C@H](NC(=O)[C@H](CC(C)C)NC(=O)[C@H](C)NC(=O)[C@H](CC(C)C)NC(=O)CCNC(=O)CCC(=O)O)[C@H](O)[C@H](C)O1` [Suc-βAla-Leu-Ala-Leu-Dox, reference compound]: the MTD in series [1] (SD MTD (mg/kg), value in parentheses (doxorubicin equivalent dose), Table 11, doses as first stated) came out at 42 mg/kg; in series [1] (SD MTD (mg/kg), value in parentheses: doxorubicin equivalent dose, Table 12, re-analyzed data and new data) it was 28 mg/kg; in series [1] (Table 12, re-analyzed data and new data, read-out: SD MTD), 50 mg/kg; in series [1] (setting [7]) it was 75 mg/kg; in series [2] (Repeat Dose MTD (mg/kg), value in parentheses: doxorubicin equivalent dose, Q 5 D × 5 or Q 7 D × 5), 32 mg/kg; in series [2] (Q 5 D × 5 or Q 7 D × 5 as given per compound, read-out: Repeat Dose MTD), 57 mg/kg. The exposure (AUC) in the series “in vivo” was found to be 806 µM·h.
The term IC50 denotes the concentration at which inhibition is half-maximal. For the compound `COc1cccc2c1C(=O)c1c(O)c3c(c(O)c1C2=O)C[C@@](O)(C(=O)CO)C[C@@H]3O[C@H]1C[C@H](NC(=O)[C@H](CC(C)C)NC(=O)[C@H](Cc2ccc(O)cc2)NC(=O)[C@H](CC(C)C)NC(=O)CCC(=O)O)[C@H](O)[C@H](C)O1` [Suc-Leu-Tyr-Leu-Dox], the figures for the half-inhibitory concentration (IC50) in series [3], in series [4] and in series [5] were 42 µM, 9.4 µM and 51 µM, respectively. Also, the MTD at 60 day in series [1] (intravenous, SD MTD (mg/kg), value in parentheses (doxorubicin equivalent dose), Table 11, doses as first stated) was above 70 mg/kg; in series [1] (intravenous, SD MTD (mg/kg), value in parentheses: doxorubicin equivalent dose, Table 12, re-analyzed data and new data), above 70 mg/kg; in series [1] (intravenous, Table 12, re-analyzed data and new data, read-out: SD MTD), above 128 mg/kg; in series [1] (setting [7]) it was above 128 mg/kg.
On to `CC[C@H](C)[C@H](NC(=O)CCC(=O)O)C(=O)N[C@@H](C)C(=O)N[C@@H](CC(C)C)C(=O)N[C@H]1C[C@H](O[C@H]2C[C@](O)(C(=O)CO)Cc3c(O)c4c(c(O)c32)C(=O)c2c(OC)cccc2C4=O)O[C@@H](C)[C@H]1O` [Suc-Ile-Ala-Leu-Dox], for which the figures for the IC50 in series [3], in series [4] and in series [5] were 47 µM, 1.1 µM and 88 µM, respectively. The exposure (AUC) in series [6] (female, ICR, mouse, in vivo, iv, 100 umol/kg) is 452 µM·h. Besides, in series [6] (single IV bolus approximately 100 μmol/Kg of prodrug, ICR mice), the “Dox, area under the plasma concentration time curve” value came to 0.9 µM·h. In series [6] (setting [8]), the “AL-Dox or AG-DOX, area under the plasma concentration time curve” value was 1.0 µM·h. For the same compound, the “L-Dox or G-Dox, area under the plasma concentration time curve” value in series [6] (setting [8]) amounted to 6.2 µM·h.

The values above are taken from patent US7214663B2, “Tripeptide prodrug compounds” (Medarex, Inc., priority 2001, dated 2007).
